Publication PMC4573856 (Genes & Development, 2015)
Where two headings read alike, the source gives them in different places.

Experiments:
[1] = biological target: T1, Dm eIF4E (residues 69-248) used for ITC (Drosophila melanogaster, UniProt P48598-2 69-248); assay: ITC
T1 sequence (looked up): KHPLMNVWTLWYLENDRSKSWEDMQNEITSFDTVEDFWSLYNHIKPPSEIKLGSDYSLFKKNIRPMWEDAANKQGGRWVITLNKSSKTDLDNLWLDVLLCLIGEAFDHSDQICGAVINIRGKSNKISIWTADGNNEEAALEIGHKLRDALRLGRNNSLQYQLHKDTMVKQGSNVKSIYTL

[2] = biological target: T2, His6-tagged Dm eIF4E (residues 69-248) (Drosophila melanogaster, UniProt P48598-2 69-248); assay: pull-down
T2 sequence (looked up): T1 sequence (looked up)

[3] = biological target: T2, His6-tagged Dm eIF4E (residues 69-248); assay: pull-down; remark: listed apart in the source

B1: GB1-stabilized Dm Mxt peptide (residues 577-640) (domain or fragment, Drosophila melanogaster, UniProt Q9VR35 577-640, looked up)
chain: SRVSYDIEHLLYYSMSPHSWTLPTDWQKMQETAPSILRNKDLQDESQRFDGDKYLASIKTAAKR
modifications: also: 15N-labelled, GB1-stabilized (GB1 fusion)
Kd [1]: 0.5 nM

SRVSYDIEHLLYYSMSPHSWTLPTDWQKMQETAPSILRNKDLQD (domain or fragment, Drosophila melanogaster, UniProt Q9VR35 577-620, looked up) [GB1-stabilized Dm Mxt peptide C + NC (residues 577-620)]
Kd [1]: 5 nM

SRVSYDREHLLYYRMSPHSWTLPTDWQKMQETAPSILRNKDLQD (domain or fragment, Drosophila melanogaster, UniProt Q9VR35 577-620, looked up) [GB1-tagged Dm Mxt C + NC IS-RR mutant peptide]
binding result [2]: binds

SRVSYDREHLLYYRMSPHSWTLPTDWQKMQETAPSILRNKDLQD (domain or fragment, Drosophila melanogaster, UniProt Q9VR35 577-620, looked up) [MBP-tagged Dm Mxt fragment 577-620 IS-RR mutant C-terminally fused to GB1]
binding result [3]: binds

B2: Dm eIF4G (residues 578-650) C-terminally fused to GB1 (domain or fragment, Drosophila melanogaster, UniProt O61380 578-650, looked up)
chain: PETTLNDKQDSTDLKVKVSAKISSIINYNEGQWSPNNPSGKKQYDREQLLQLREVKASRIQPEVKNVSILPQP
binding result [3]: binds
